The source of these data is publication PMC12341890, “Insights into plastocyanin–cytochrome b6f complex formation: The role of plastocyanin phosphorylation” (Plant Physiology, 2025).

Assay [1] addresses cytochrome f (Cytf, PetA), His-tagged, in the isolated cytochrome b6f complex (C. reinhardtii) (UniProt P23577).
Assay [2] has as its target T1, cytochrome f (Cytf, PetA), His-tagged, in the isolated cytochrome b6f complex (C. reinhardtii, UniProt P23577 32-317).
T1 construct: cytochrome f (PetA) of C. reinhardtii, UniProt P23577; numbers count on: the mature protein (Y32 of P23577 = Y1); Stood in every assay as a subunit of the whole isolated Cytb6f complex, not as an isolated protein; Carries heme f; also called Cytb6f (as the subunit cross-linked); source: C. reinhardtii strain expressing His-tagged PetA; Cytb6f complex purified (tPCCαM solubilisation, NiNTA, …)
Briefly: cross-linking; PC (100 µM) preactivated with 5 mM EDC and 10 mM NHS, pH 6.5 (MOPS), 20 min at room temperature; 5 mM ferricyanide added and cross-linker removed; added to isolated Cytb6f (2.7 µM) pre-reduced with 5 mM ascorbate; HEPES 30 mM pH 7.5, MgCl2, tPCCαM; 45 min at room temperature; read by SDS-PAGE (Coomassie, anti-Cytf blot) and by trypsin digestion with LC-MS/MS (MaxQuant and xiSEARCH). As to conditions: both partners purified.

Chain of cytochrome f (Cytf, PetA), His-tagged, in the isolated cytochrome b6f complex (C. reinhardtii) (P23577 32-317, one chain of several): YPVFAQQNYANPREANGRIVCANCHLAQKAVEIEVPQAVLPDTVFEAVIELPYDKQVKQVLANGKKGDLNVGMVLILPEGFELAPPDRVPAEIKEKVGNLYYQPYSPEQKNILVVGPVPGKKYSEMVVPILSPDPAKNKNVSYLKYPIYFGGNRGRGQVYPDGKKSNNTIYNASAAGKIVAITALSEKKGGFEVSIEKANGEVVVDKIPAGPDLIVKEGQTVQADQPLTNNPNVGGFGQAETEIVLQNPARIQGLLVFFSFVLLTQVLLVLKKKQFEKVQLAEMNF
T1 sequence (P23577 32-317, one chain of several): as above

B1: plastocyanin (PC) S49D, recombinant phosphomimetic variant (natural protein)
chain: DATVKLGADSGALEFVPKTLTIKSGETVNFVNNAGFPHNIVFDEDAIPDGVNADAISRDDYLNAPGETYSVKLTAAGEYGYYCEPHQGAGMVGKIIVQ
The molecule B1 came in with a half-time of Cytf oxidation in the light (absorbance at 554 nm), isolated Cytb6f and PSI, 1 to 3 µM PC, 5 µM FDX in assay [1] of 120 ms.

B2: plastocyanin (PC) S49K, recombinant (natural protein, C. reinhardtii)
chain: DATVKLGADSGALEFVPKTLTIKSGETVNFVNNAGFPHNIVFDEDAIPKGVNADAISRDDYLNAPGETYSVKLTAAGEYGYYCEPHQGAGMVGKIIVQ
notes: plastocyanin of C. reinhardtii, UniProt P18068, with a point mutation S49K that adds a trypsin site; numbers count on: the mature protein (D48 of P18068 = D1); S49 is S96 in P18068 by the printed offset; Made from the WT Pet17b-PETE plasmid; the methods list codons only for S-to-A, S-to-E and S-to-D; also called mutated S49K PC; source: E. coli, recombinant (as the wild type PC)
Take B2: the binding result in assay [2] was “binds”.
